B1: GT 84A1: Arabidopsis thaliana glycosyltransferase, SEQ ID NO: 81 (nucleotide), 130 (amino acid) (protein, listed as Arabidopsis thaliana)
chain: MVFETCPSPNPIHVMLVSFQGQGHVNPLLRLGKLIASKGLLVTFVTTELWGKKMRQANKIVDGELKPVGSGSIRFEFFDEEWAEDDDRRADFSLYIAHLESVGIREVSKLVRRYEEANEPVSCLINNPFIPWVCHVAEEFNIPCAVLWVQSCACFSAYYHYQDGSVSFPTETEPELDVKLPCVPVLKNDEIPSFLHPSSRFTGFRQAILGQFKNLSKSFCVLIDSFDSLEQEVIDYMSSLCPVKTVGPLFKVARTVTSDVSGDICKSTDKCLEWLDSRPKSSVVYISFGTVAYLKQEQIEEIAHGVLKSGLSFLWVIRPPPHDLKVETHVLPQELKESSAKGKGMIVDWCPQEQVLSHPSVACFVTHCGWNSTMESLSSGVPVVCCPQWGDQVTDAVYLIDVFKTGVRLGRGATEERVVPREEVAEKLLEATVGEKAEELRKNALKWKAEAEAAVAPGGSSDKNFREFVEKLGAGVTKTKDNGY
B2: GT 73B2: Arabidopsis thaliana glycosyltransferase, SEQ ID NO: 23 (nucleotide), 115 (amino acid) (protein, listed as Arabidopsis thaliana)
chain: MGSDHHHRKLHVMFFPFMAYGHMIPTLDMAKLFSSRGAKSTILTTSLNSKILQKPIDTFKNLNPGLEIDIQIFNFPCVELGLPEGCENVDFFTSNNNDDKNEMIVKFFFSTRFFKDQLEKLLGTTRPDCLIADMFFPWATEAAGKFNVPRLVFHGTGYFSLCAGYCIGVHKPQKRVASSSEPFVIPELPGNIVITEEQIIDGDGESDMGKFMTEVRESEVKSSGVVLNSFYELEHDYADFYKSCVQKRAWHIGPLSVYNRGFEEKAERGKKANIDEAECLKWLDSKKPNSVIYVSFGSVAFFKNEQLFEIAAGLEASGTSFIWVVRKTKDDREEWLPEGFEERVKGKGMIIRGWAPQVLILDHQATGGFVTHCGWNSLLEGVAAGLPMVTWPVGAEQFYNEKLVTQVLRTGVSVGASKHMKVMMGDFISREKVDKAVREVLAGEAAEERRRRAKKLAAMAKAAVEEGGSSFNDLNSFMEEFSS
B3: GT 73B1: Arabidopsis thaliana glycosyltransferase, SEQ ID NO: 22 (nucleotide), 114 (amino acid) (protein, listed as Arabidopsis thaliana)
chain: MGTPVEVSKLHFLLFPFMAHGHMIPTLDMAKLFATKGAKSTILTTPLNAKLFFEKPIKSFNQDNPGLEDITIQILNFPCTELGLPDGCENTDFIFSTPDLNVGDLSQKFLLAMKYFEEPLEELLVTMRPDCLVGNMFFPWSTKVAEKFGVPRLVFHGTGYFSLCASHCIRLPKNVATSSEPFVIPDLPGDILITEEQVMETEEESVMGRFMKAIRDSERDSFGVLVNSFYELEQAYSDYFKSFVAKRAWHIGPLSLGNRKFEEKAERGKKASIDEHECLKWLDSKKCDSVIYMAFGTMSSFKNEQLIEIAAGLDMSGHDFVWVVNRKGSQEEKEDWLPEGFEEKTKGKGLIIRGWAPQVLILEHKAIGGFLTHCGWNSLLEGVAAGLPMVTWPVGAEQFYNEKLVTQVLKTGVSVGVKKMMQVVGDFISREKVEGAVREVMVGEERRKRAKELAEMAKNAVKEGGSSDLEVDRLMEELTLVKLQKEKV
B4: GT 73C4: Arabidopsis thaliana glycosyltransferase, SEQ ID NO: 30 (nucleotide), 121 (amino acid) (protein, listed as Arabidopsis thaliana)
chain: MASEKSHKVHPPLHFILFPFMAQGHMIPMIDIARLLAQRGATVTIVTTRYNAGRFENVLSRAMESGLPINIVHVNFPYQEFGLPEGKENIDSYDSMELMVPFFQAVNMLEDPVMKLMEEMKPRPSCIISDLLLPYTSKIARKFSIPKIVFHGTGCFNLLCMHVLRRNLEILKNLKSDKDYFLVPSFPDRVEFTKPQVPVETTASGDWKAFLDEMVEAEYTSYGVIVNTFQELEPAYVKDYTKARAGKVWSIGPVSLCNKAGADKAERGNQAAIDQDECLQWLDSKEDGSVLYVCLGSICNLPLSQLKELGLGLEKSQRSFIWVIRGWEKYNELYEWMMESGFEERIKERGLLIKGWSPQVLILSHPSVGGFLTHCGWNSTLEGITSGIPLITWPLFGDQFCNQKLVVQVLKAGVSAGVEEVMKWGEEEKIGVLVDKEGVKKAVEELMGASDDAKERRRRVKELGESAHKAVEEGGSSHSNITYLLQDIMQQVKSKN
B5: GT 72D1: Arabidopsis thaliana glycosyltransferase, SEQ ID NO: 18 (nucleotide), 113 (amino acid) (protein, listed as Arabidopsis thaliana)
chain: MDQPHALLVASPGLGHLIPILELGNRLSSVLNIHVTILAVTSGSSSPTETEAIHAAAARTICQITEIPSVDVDNLVEPDATIFTKMVVKMRAMKPAVRDAVKLMKRKPTVMIVDFLGTELMSVADDVGMTAKYVYVPTHAWFLAVMVYLPVLDTVVEGEYVDIKEPLKIPGCKPVGPKELMETMLDRSGQQYKECVRAGLEVPMSDGVLVNTWEELQGNTLAALREDEELSRVMKVPVYPIGPIVRTNQHVDKPNSIFEWLDEQRERSVVFVCLGSGGTLTFEQTVELALGLELSGQRFVWVLRRPASYLGAISSDDEQVSASLPEGFLDRTRGVGIVVTQWAPQVEILSHRSIGGFLSHCGWSSALESLTKGVPIIAWPLYAEQWMNATLLTEEIGVAVRTSELPSERVIGREEVASLVRKIMAEEDEEGQKIRAKAEEVRVSSERAWSKDGSSYNSLFEWAKRCYLVP
B6: GT 71C4: Arabidopsis thaliana glycosyltransferase, SEQ ID NO: 10 (nucleotide), 110 (amino acid) (protein, listed as Arabidopsis thaliana)
chain: MVKETELIFIPVPSTGHILVHIEFAKRLINLDHRIHTITILNLSSPSSPHASVFARSLIASQPKIRLHDLPPIQDPPPFDLYQRAPEAYIVKLIKKNTPLIKDAVSSIVASRRGGSDSVQVAGLVLDLFCNSLVKDVGNELNLPSYIYLTCNARYLGMMKYIPDRHRKIASEFDLSSGDEELPVPGFINAIPTKFMPPGLFNKEAYEAYVELAPRFADAKGILVNSFTELEPHPFDYFSHLEKFPPVYPVGPILSLKDRASPNEEAVDRDQIVGWLDDQPESSVVFLCFGSRGSVDEPQVKEIARALELVGCRFLWSIRTSGDVETNPNDVLPEGFMGRVAGRGLVCGWAPQVEVLAHKAIGGFVSHCGWNSTLESLWFGVPVATWPMYAEQQLNAFTLVKELGLAVDLRMDYVSSRGGLVTCDEIARAVRSLMDGGDEKRKKVKEMADAARKALMDGGSSSLATARFIAELFEDGSSC

Key:
[1] = Removal of aglycones through adsorption by PVPP, analysed by RP-HPLC; format: physicochemical; settings: ratio of compounds removed by PVPP over that in the untreated samples
Description: FIG. 7: Removal of different aglycones through adsorbtion by PVPP. The removal of a) trans-resveratrol (100%), b) esculetin (70%), c) daidzein (81%), and d) scopoletin (92%) by PVPP was analyzed by RP-HPLC. The efficiency was defined as the ratio of compounds removed by PVPP over that in the untreated samples;
(§1) Reverse-phase HPLC (RP-HPLC): RP-HPLC (Agilent 1100 system with Photodiode Array Detector, Agilent, U.K.) analysis was carried out using a Columbus 5-μ C18 column (150×3.20 mm, Phenomenex, U.K.). Glucosides were separated from their respective aglycones using a linear gradient of acetonitrile/0.1% formic acid (v/v) in H2O: 10-45% (trans-resveratrol/glucosides), 10-50% (daidzein/glucosides) at 0.5 mL/min over 20 min and monitored at 280 nm and 250 nm. Separation of scopoletin/scopolin and esculetin/esculin was carried out using the conditions described previously.^[11]
(§2) Stage 3, detection: 50 μl of the reaction mix were transferred to a 96-well filtration plate (Abgene, U.K.), mixed with an equal volume of PVPP aqueous suspension (25 g/L), shaken for 1 h at 25° C. before centrifugation (1000 g, 5 min). To each filtrate, 50 mM 2-morpholino-ethanesulfonic acid buffer (MES) (pH 7.0), ABTS™ (0.1 mM), peroxidase (2 U) and glucose oxidase (2 U) were added to a final volume of 125 μl. The formation of the green dye was monitored at 405 nm at 30 min using a plate reader (Bio-Tec Instruments Inc., U.S.A).

[2] = Whole-cell biocatalysis screen of GT library against the aglycone daidzein (RP-HPLC of glucosides); format: cell-based, E. coli; settings: for regioselectivity for the 7-OH of daidzein: percentage of a regiospecific glucoside in the total amount of monoglucosides formed
Source text: (§3) FIG. 3: Screening of a GT-library against the aglycone daidzein. a) The readings at A405 nm for D-glucose detection are presented in a colored code format. b) Examples of RP-HPLC trace of active and non-active GTs in whole-cell biocatalysis are illustrated. c) The regioselectivity of the active GTs towards daidzein, defined by the percentage of a regiospecific glucoside in the total amount of monoglucosides formed;
as §1
(§4) The cDNA library of 96 Arabidopsis thaliana GTs was subcloned into the multiple cloning site of the glutathione-S-transferase (GST) gene fusion vector pGEX-2T (Amersham Biosciences, U.K.) as described previously^[10] and transformed into the strain E. coli BL21 (DE3) for use in the screening method.
Stage 1, biotransformation: single colonies of the GT library grown on LB-agar plates overnight were transferred to individual wells in a 96-well bacterial culture plate containing 400 μl 2×YT medium (16 g/L bacto tryptone, 10 g/L yeast extract, 5 g/L NaCl) and 50 μg/mL ampicillin. The plate was covered with an adhesive plate seal (Abgene, U.K.) and incubated at 37° C. (250 rpm). The bacterial growth was monitored at 595 nm by a plate reader. After 4 h, the cultures had reached exponential phase. The plate was centrifuged (4000 g, 10 min), the supernatants discarded and cell pellets were resuspended in isopropyl-D-thiogalactopyranoside (0.1 mM), 2-(N-morpholino)ethanesulfonic acid (50 mM, pH 7.0), ampicillin (50 μg/mL), L-arabinose (10 g/L) and 500 µM of aglycone to a total whole-cell reaction volume of 400 μl/well. The 96-well plate was closed with a gas permeable adhesive plate seal, wrapped in alu foil for light protection and incubated at 25° C. (250 rpm). After 44 h the cultures were centrifuged (4000 g, 15 min) and the supernatants analyzed. […]
Stage 3, detection: 50 μl of the reaction mix were transferred to a 96-well filtration plate (Abgene, U.K.), mixed with an equal volume of PVPP aqueous suspension (25 g/L), shaken for 1 h at 25° C. before centrifugation (1000 g, 5 min). […] The formation of the green dye was monitored at 405 nm at 30 min using a plate reader (Bio-Tec Instruments Inc., U.S.A). […]

[3] = Whole-cell biocatalysis screen of GT library against the aglycone trans-resveratrol (RP-HPLC of glucosides); format: cell-based, E. coli; settings: 500 µM aglycone, 44 h, 25° C.
Source text: as §3, with “4:” for “3:”, “trans-resveratrol.” for “daidzein.”, “RP HPLC” for “RP-HPLC”, “non active” for “non-active”, “whole cell” for “whole-cell”, “trans-resveratrol,” for “daidzein,”
as §1, §4
Stage 1, biotransformation: single colonies of the GT library grown on LB-agar plates overnight were transferred to individual wells in a 96-well bacterial culture plate containing 400 μl 2×YT medium (16 g/L bacto tryptone, 10 g/L yeast extract, 5 g/L NaCl) and 50 μg/mL ampicillin. The plate was covered with an adhesive plate seal (Abgene, U.K.) and incubated at 37° C. (250 rpm). The bacterial growth was monitored at 595 nm by a plate reader. After 4 h, the cultures had reached exponential phase. The plate was centrifuged (4000 g, 10 min), the supernatants discarded and cell pellets were resuspended in isopropyl-D-thiogalactopyranoside (0.1 mM), 2-(N-morpholino)ethanesulfonic acid (50 mM, pH 7.0), ampicillin (50 μg/mL), L-arabinose (10 g/L) and 500 µM of aglycone to a total whole-cell reaction volume of 400 μl/well. The 96-well plate was closed with a gas permeable adhesive plate seal, wrapped in alu foil for light protection and incubated at 25° C. (250 rpm). After 44 h the cultures were centrifuged (4000 g, 15 min) and the supernatants analyzed.
Stage 2, cleavage: supernatants (100 μl) were transferred to a microtiter plate, 1 μl of β-glucosidase (1 U) was added and the plate incubated for 90 min at 37° C.
as §2
The utility of the screening method and regioselective biocatalysis by the GTs are illustrated in FIGS. 2 and 3. Thirteen GTs recognized daidzein and twenty-five GTs were identified that glycosylated trans-resveratrol. […] The mono- and di-glucosides of daidzein (4-6) and trans-resveratrol (8-10), eluting earlier than the two aglycones under the RP-HPLC conditions used (FIGS. 2b and 3b), were identified using external standards when available, or by electrospray liquid chromatography-mass spectrometry (LC-MS). ^1H-NMR analysis was used to confirm the structure of the monoglucosides (Table 1, SEQ ID NO: 1-107). […] Similarly, regioselective glycosylation of trans-resveratrol was observed. […] Only trace levels of a diglucoside were observed under the reaction conditions used.

Molecule	removal by PVPP (efficiency) [1]	regioselectivity for the 7-OH of daidzein [2]	also measured
O=c1ccc2cc(O)c(O)cc2o1 [esculetin]	70%		
COc1cc2ccc(=O)oc2cc1O [scopoletin]	92%		
Oc1ccc(/C=C/c2cc(O)cc(O)c2)cc1 [trans-resveratrol]	100%		
O=c1c(-c2ccc(O)cc2)coc2cc(O)ccc12 [daidzein]	81%		
B1		100%	
B2		100%	
B3		100%	
B4			daidzein glucosides formed / positions glycosylated ([2]; whole-cell biocatalysis, 500 µM aglycone, 44 h, 25° C.): produced the diglucoside in addition to the monoglucosides
B5			regioselective glycosylation of trans-resveratrol (position) [3]: specific for the 3-OH position
B6			regioselective glycosylation of trans-resveratrol (position) [3]: specific for the 3-OH position
